Laboratory results reported in IntAct's records for PubMed 22115042.

How the values were obtained:
dock3_mouse Dock3 [1] = target: dock3_mouse Dock3 (UniProt Q8CIQ7)
dock3_mouse Dock3 [2] = target: dock3_mouse Dock3 (UniProt Q8CIQ7); remark: listed apart in the source

Presenilin-2 (Homo sapiens), P49810 N141I, sequence (P49810 whole entry N141I): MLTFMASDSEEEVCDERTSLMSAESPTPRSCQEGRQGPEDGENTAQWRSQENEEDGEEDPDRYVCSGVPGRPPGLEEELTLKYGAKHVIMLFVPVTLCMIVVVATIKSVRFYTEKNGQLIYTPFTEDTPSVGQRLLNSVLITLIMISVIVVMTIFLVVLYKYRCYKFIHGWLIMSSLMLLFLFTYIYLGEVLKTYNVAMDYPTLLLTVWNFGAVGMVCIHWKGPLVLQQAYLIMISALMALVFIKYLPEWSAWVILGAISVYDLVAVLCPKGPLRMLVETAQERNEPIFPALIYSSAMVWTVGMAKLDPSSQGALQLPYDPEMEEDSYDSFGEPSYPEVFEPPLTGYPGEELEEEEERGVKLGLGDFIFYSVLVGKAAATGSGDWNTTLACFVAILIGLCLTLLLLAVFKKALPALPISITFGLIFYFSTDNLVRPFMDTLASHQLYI

effect of a mutation on the interaction (dock3_mouse Dock3 [1]) | effect of a mutation on the interaction (dock3_mouse Dock3 [2]) | Substance
with no effect |  | Presenilin-2 (Homo sapiens), P49810 N141I
 | increasing interaction strength | Presenilin-1 (Homo sapiens) (from UniProt P49768) C410Y
 | increasing interaction strength | Presenilin-1 (Homo sapiens) (from UniProt P49768) M146L
